# Measured values as given in publication PMC9444907.
# Read-outs that look alike come from different tables or passages of the source.
# Assays:
# [1] = molecular target: human Rb pocket domain lacking the single internal loop (residues 380-787; Δ582-642) (human) (UniProt P06400); experiment: ITC
# [2] = molecular target: p107ΔL pocket domain (residues 389-972, Δ600-779, Δ888-923) (human); experiment: ITC
# [3] = molecular target: Rb pocket domain (Homo sapiens) (UniProt P06400); conditions: cited from earlier work
# [4] = molecular target: p107 pocket domain M865V (human); experiment: ITC
# [5] = molecular target: p107 pocket domain V939M (human); experiment: ITC
# [6] = molecular target: Rb pocket domain (Homo sapiens) (UniProt P06400); conditions: cited from earlier work; remark: listed apart in the source
Substance,Kd [1],Kd [2],other results
EID1 peptide E176R/E177R,9000 nM,14000 nM,–
HDAC1 triple (3X) mutant peptide R413D/A415Y/E417Y,–,105 nM,–
human HDAC1 LxCxE motif peptide,–,> 10000 nM,–
PRDM2 IxCxE peptide (from UniProt Q13029),–,–,Kd [3]: 640 nM
human ARID4A LxCxE motif peptide,140 nM,1600 nM,Kd [4]: 120 nM; Kd [5]: 330 nM
human EID1 LxCxE motif peptide,6000 nM,7000 nM,–
EID1 peptide G179Y/D181Y,170 nM,250 nM,–
ARID4A peptide E955R,–,2300 nM,–
HPV16 E7 peptide (from UniProt P03129),–,–,Kd [6]: 5 nM
